Measurements taken from the supplement of paper PMC9170038.

Tested on: MS2 coat protein
Assay: apparent KD of MS2 coat protein; designed switch direction (-1 OFF switch, 1 ON switch): -1; higher = weaker reporter binding
Summary of the method: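 On Illumina chips, designed RNA switches with common flanks were made by stalled E. coli RNA polymerase. Titrations with SNAP-549-labelled MS2 coat protein, doubling from 0.7 or 1.5 nM to 3 µM, were done with no input, with 200 uM small-molecule ligand, or with an oligonucleotide input. Apparent KD is the median per design over clusters, from curve fits of normalised cluster fluorescence.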

[1] = input ligand: microRNA oligo, concentration not stated
[2] = Eterna round: R95, input ligand: microRNA oligo, concentration not stated
[3] = Eterna round: R95, input ligand: FMN 200 uM
[4] = Eterna round: R95, input ligand: none

Sequence	apparent KD of MS2 coat protein (input ligand: FMN 200 uM) [nM]	apparent KD of MS2 coat protein (input ligand: none) [nM]	apparent KD of MS2 coat protein [1] [nM]	apparent KD of MS2 coat protein [2] [nM]	apparent KD of MS2 coat protein [3] [nM]	apparent KD of MS2 coat protein [4] [nM]
CGGCAAUCCAAGGAUAUGCUAGACGAAAGUCUAGCAGAAGGUGGAACAUGAGGAUCACCCAUGUGUCCAAGCCG [Eli x6 4.04] (Eterna round: R97, puzzle: Exclusion 6)	21.1	15.3				
CAAUAACAAGCGAGAUCCUACAUGAGGAUCACCCAUGUGCUCGUCUUAAAAGGUACUGUGACGAUAGUCACGGUACC [Mat - Sensor, turn-off var - Eli Mod - D98] (Eterna round: R97, puzzle: Sensor, turn-off variant 1)	15.3	17.9				
GGUCGAGAAGUUAGGAUAUCGAUAAAACAGAAAUUUGAGAAGGGACUUGAGGAUCACCCAAGUUAUUGGUUCUC [Anaranle] (Eterna round: R97, puzzle: Brourd's mod of Exclusion 4)	17.8	19.6				
UCCUUACUGGUCAGGAUAUACAGUCGCGGGUGGGUGUAGAAGGGACAUGAGGAUCACCCAUGUACGUUACAGCC [alecazam54i] (Eterna round: R97, puzzle: Brourd's mod of Exclusion 4)	27.6	30.2				
ACAAGCUAUAUGCUCGGUUACAUGAGGAUCACCCAUGUACUCAUGUUCUUAUGUACUGACACGAAAGUGUUAGUAAU [AK-miRNA-r3-1] (Eterna round: R97, puzzle: Sensor, turn-off variant 1)	110	122				
UGGGUUCCAAGUGAGUCAGACAUGAGGAUCACCCAUGUAUAGCAAGCCUUAGCCGUUCGAGCAAAUGGUCUCGUCAG [Eternabot (Original) Solution 36] (Eterna round: R97, puzzle: Sensor, turn-off variant 1)	384	1040				
ACAUGAGGAUCACCCAUGUGAAAGAAAUGGCUGACUUUGAGCUAGGAUAUUUGUGCAUAUCAAACGAAGAAGGAGCAUUACUGG [Deportation 100 - Jieux - Exclusion NG 3] (Eterna round: R96, puzzle: Exclusion NG 3)			16.4			
UUAAAUAAUGUAGGAUAUGCAAGGCGAACCUAAGCAGAAGGACAUGAGGAUCACCCAUGUAAUGCGGUCUGCGUACAGAUCGCA [JL ENG1 1.01] (Eterna round: R96, puzzle: Exclusion NG 1)	59.4	24.2	23.2			
AGUUGGCGAGGAUAUACAUGAGGAUCACCCAUGUGAAAUAGAAUAGUGAGGAAGAAAAGUAGAAGGCGCUGACA [Mat - Exclusion 3 - Mod of Salish D41] (puzzle: Exclusion 3)				49.7		
AAAUUAGCAAGUAGGUCCGACAUGAGGAUCACCCAUGUUAUCUGAAAUAACGCAGCAUGAUUGUGCGCUCGUCUUAG [Sensor-V1 #7] (Eterna round: R97, puzzle: Sensor, turn-off variant 1)	67.6	68.6				
UAAAAGUCAGGAUAUGCGAGAGAUUGAAGUAUGGAAAGGUAGCAGAAGGGACAUGAGGAUCACCCAUGUGAGGA [JR_Exclu4_Sub095] (puzzle: Exclusion 4)				31.7	51.1	29.5
UGAGUGCUGCGAGGAUAUACAUGAGGAUCACCCAUGUUUUCCUGUGAGGCUUUGCCUCACAGGAUGUAGAAGGCGCAGUACUCU [JL ENG2 1.14] (Eterna round: R96, puzzle: Exclusion NG 2)	9.13	12.1	7.33			
GACCUAUAGGUAGGAUAUCAUUGCGAUUAGCUAUGAGAAGGACCACAUGAGGAUCACCCAUGUCCUCCAAUUAACCAUUUGGUC [Fiskers ExNg1 - 4] (Eterna round: R96, puzzle: Exclusion NG 1)	239	86.7	69.6			
UGUCAGAUGGUAGGAUAUCCUUAUCGCGUGUCCCUUUCCUAACAUGAGGAUCACCCAUGUCGGUGGGAGAAGGGCCGUAUGGUG [salish99_ExNG02_R04_038] (Eterna round: R96, puzzle: Exclusion NG 2)	11.5	13.4	11.2			
GCUGGUCGAGGAUAUGCAUACACUGGAUACAGUGGAAGGUCACAUGAGGAUCACCCAUGUAGAAGGCGACCAGC [EX2 #35] (Eterna round: R97, puzzle: Exclusion 2)	122	35.1				
UCACGGGAUUGAGGAUAUAUAUUAAUUUUUUUUAUAGAAGGCAAAUUGUUAGAUUAUUCACUAUACAUGAGGAUCACCCAUGUU [JR_ExcBG1_Sub077] (Eterna round: R96, puzzle: Exclusion NG 1)			19.9			
AAACUGAGGCAAAGCUUUAGUCGUACAUGAGGAUCACCCAUGUAGGAUAUGGUAGGCAAAGCUUACCAGAAGGACAGAGUGAUC [Mat - Exclusion NG 3 - Mod of JL - D57] (Eterna round: R96, puzzle: Exclusion NG 3)	251	344	487			

Sequence	apparent KD of MS2 coat protein (input ligand: FMN 200 uM) [nM]	apparent KD of MS2 coat protein (input ligand: none) [nM]	apparent KD of MS2 coat protein [1] [nM]	apparent KD of MS2 coat protein [2] [nM]	apparent KD of MS2 coat protein [3] [nM]	apparent KD of MS2 coat protein [4] [nM]
AUUGUUUAUGUAGGAUAUGCCUGGCGUGCCUUUGCAGAAGGACAUGAGGAUCACCCAUGUAACAUGAGGCUCACCCAUGUCGCC [salish99_ExNG1_r04_114] (Eterna round: R96, puzzle: Exclusion NG 1)	162	170	123			
AAUAUGUGAGGAUAUCAGGUGUGCUAGCGUACUGGUACAUCUGAGAAGGCACAUGAGGAUCACCCAUGUAUCUU [Mat - Exclusion 4 - Mod of JL - D45] (puzzle: Exclusion 4)				24.3		
UUUAUGCUAGGAUAUGCACCCUCGAACAUGAGGAUCACCCAUGUACAAUAAACGCAUGGAGCAGAAGGAGCUCCGA [EX5 A.5] (Eterna round: R97, puzzle: Exclusion 5)	203	86.7				
GACCUCCCUGUAAGGAUAUCCAUGCAUCAAAGCAUGGAGAAGGUACAUGAGGAUCACCCAUGUCACCCGCGUUA (Eterna round: R97, puzzle: Brourd's mod of Exclusion 4)	20.7	15				
UAUAUAUAGUAAGGAUAUGUAUUAAUUUUAUGAACAGAAGGUACUGACAUGAGGAUCACCCAUGUUUUAGUGUGGGCAUGUAGA [JMF's solution 91] (Eterna round: R96, puzzle: Exclusion NG 1)			65.5			
UUGUUCUGAGGAUAUACAUGAGGAUCACCCAUGUGUUUCUGCUUGGAGACUAGCGAAUGUAGAAGGCUGUUCUC [salish99_ex3_r4_021] (Eterna round: R97, puzzle: Exclusion 3)	15.2	14.2				
AUUUAGUGAGGAUAUGUGGCUUCGAUCGUGAGAUCGAGGCUACAGAAGGCACAUGAGGAUCACCCAUGUUCCUA [salish99_ex4_r4_115] (Eterna round: R97, puzzle: Exclusion 4)	86.3	21.4				
AGCCACAGAGGAUAUACAUACAUCCAGUAGUAGAUACUACUACAUGAGGAUCACCCAUGUAGAAGGCUGUGGCA [Omei Ex2 BD B17] (Eterna round: R97, puzzle: Exclusion 2)	603	162				
ACAUGUCAUUGAGGAUAUUGCACACAUGAGGAUCACCCAUGUAUACGGAUGCUCUUACGUGAGUUCGAGAAGGCGAUGUACAUU [Ex NG2 #89] (Eterna round: R96, puzzle: Exclusion NG 2)	290	160	121			
GGUACUAACACGAAAGUGUUAGUACUAUAAGUUUGUGUUACAUGAGGAUCACCCAUGUCCUCAUAAGCUCGUCUUGU [JL-sv3-2.20 mat747 mod] (puzzle: Sensor v3, turn-off variant 2)				59.6	623	685
AGUAACCGUCACGAAAGUGAUGGUUACACAAGCAAUGAAACAUGAGGAUCACCCAUGUCCUCAUUUGCUCGUCUUAU [Sensor 3 - 40] (puzzle: Sensor v3, turn-off variant 2)				486	25.5	26.8
GAAAAGUCAGGAUAUGCAGAUAAAAAAACGAAAAAAAAUCUGCAGAAGGGACAUGAGGAUCACCCAUGUAAAAG [Mat - Exclusion 4 - Mayanna - D110] (Eterna round: R96, puzzle: Exclusion 4)			29.1			
UGAGUGCUGCGAGGAUAUACAUGAGGAUCACCCAUGUAAUCGUGUGAGGCAAAGCCUCACACGAAGUAGAAGGCGCAGUACUCA [Mat - Exclusion NG 2 - Mod of JL - D18] (Eterna round: R96, puzzle: Exclusion NG 2)	15.7	18.6	12.4			
UUGAAUUAACAGGAUAUGGGAGUCGAUAGACACCCAGAAGGGUUAACAUGAGGAUCACCCAUGUGUCCUAUCAA [Mod of Eli 23 - Jieux - Exclusion 6] (Eterna round: R97, puzzle: Exclusion 6)	94.8	36.5				
GUCAGCUCGUGAGGAUAUACAUGAGGAUCACCCAUGUGAUCAAUAGCAGCUUCGGCUGCAUUAAUGUAGAAGGCACGAGCUGAU [ENG2/5-A2] (Eterna round: R96, puzzle: Exclusion NG 2)	10.1	203	166			
CAUGAUCUUCGGAUCAUGUACAUGAGGAUCACCCAUGUGACGAGUAUAUCCUCAAACAAGCUUUUUGCUCGUCUUAU [Sensor v3 - Turn-off variant 1 - 22] (puzzle: Sensor v3, turn-off variant 1)				417	299	327
